Reference: the nanobody polyreactivity screen of Harvey et al. (2022)

Test: yeast display, Sf9 membrane polyspecificity reagent, FACS + sequencing; frameworks hold sequencing errors
Summary of the method: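 In a synthetic yeast display library (Saccharomyces cerevisiae BJ5465), nanobody expression was induced with galactose for 36–48 hours. FACS gates were set low and high (top ~1%) using anti-HA fluorescence for expression and streptavidin fluorescence for binding of the Sf9 membrane reagent. Each polyreactivity label is drawn from the gate of origin.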

Sequence	polyreactivity (PSR sort gate)
QVQLVESGGGLVQAGGSLRLSCAASGSNFTFYTMGWYRQEPGKERELVAAINWSGSRTYYADSVKGRFTISRDNAKNTVYLQMNSLKPEDTAVYYCDAYYYTGPTTVESDYWGQGTQVTVSS	high polyreactivity
QVQLVESGGGLVQAGGSLRLSCAASGSNFTPNTMGWYRQAPAKERELVAGISSGDSTDYADSVKVRFTISRDNAKNTVYLQLNSLNPEDPAVYYCAAPWYGYYSRYDFYYWGQGTQVTVSS	low polyreactivity
QVQLVESGGGLVQAGGSLRLSCAASGSNFTYYALGWYRQAPGKERELVAAISKTGGRTYYADSVKGRFTISRDNAKNTVYLQMNSLKPEDTAVYYWAAEAPWQWYGWLRGYDFCGQGTQVTVSS	high polyreactivity
QVQLVESGGGLVQAGGSLRLSCAASGSNFVEYAMGWYRQAPGKERELVAGISSGGITSYADSVKGRFTISRDNAKNTVYLQMNSLKPEDTAVYYCATDPYKWFYSSYYLLQEVEYWGQGTQVTVSS	low polyreactivity
QVQLVESGGGLVQAGGSLRLSCAASGSNFVGYVMGRYRQAPGKERELVARIRWGGGRTYYADSVKGRFTISRDNAKNRVYLQMKSLKAEDTAVYYCAAVWRTRWAPGYYWGQGTQVTGSS	high polyreactivity
QVQLVESGGGLVQAGGSLRLSCAASGSNFVKYVMGWYRQAPGKERELDAAITWRGGRTYYADSVKGRFTISRDNEKNTVYLQMNSLKPEDTAVYYCAAYDQSLYGRRYDYWGQGTQVTVSS	high polyreactivity
QVQLVESGGGLVQAGGSLRLSCAASGSNFYPYAMGWYRQAPGKERELVAAITGTGGSTYYADSVKGRFTISRDNAKNTVYLQMNSLKPEDTAVYYCATRRRYYYSRYNYWGQGTQVTVSS	high polyreactivity
QVQLVESGGGLVQAGGSLRLSCAASGSNIYHNTMGWYRQAPGKERELITYYADSVKGRFTISRDNAKNTVYLQMNSLKPEDTAVYYCAASPVSRTGPGDYDYWGQGTQVTVSS	low polyreactivity
QVQLVESGGGLVQAGGSLRLSCAASGSNSFLYTMRWYRQAPGKERELVAAITGSTASTYYADSVKGRFTISRDNAKNTVYLQMNSLKPEDSAVYYWAAYWYAEGYWVSRDYWGQGTQVTVSS	low polyreactivity
QVQLVESGGGLVQAGGSLRLSCAASGSNSRVNAMGWYRQATWKERELVASITKSTGSTYYADSVKGRFTISRDNAKNTVYLQMNSLKPEDTAVYYCAKAASYPVRAFYYWGLGTQVTVSS	high polyreactivity
QVQLVESGGGLVQAGGSLRLSCAASGSNSVYAMGWYRQAPGKERELVAAITISGGITYYADSVKGRFTIARDNAKNTVYLQMNSLKPEDTAVFYCNADQGSALRWSYDYWGQGTQVTVSS	low polyreactivity
QVQLVESGGGLVQAGGSLRLSCAASGSNYPPNAMGWYRQAPGKEREFVASITSSGGITNYADSVKGRFTISRDNAKNTVYLQMNSLKPVDTAVYYCAAKYYGGTRFRPYGYWGQGTQVTVSS	high polyreactivity
QVQLVESGGGLVQAGGSLRLSCAASGSNYYYYAIGWYRQAPGKERELVAAISWSGASTFYADSVKGRFTSSRDNAKNTVYLQMNSLKPEDTAVYYCAARYYGQPQYQPLYYWGQGTQVTVSS	high polyreactivity
QVQLVESGGGLVQAGGSLRLSCAASGSPFGYYAMGWYRQATGKERELVAAITRSGGRTYYADSVKGRFTISRDNAKNTVYLQMNSLKPEDTAVYYCAADRVRRPSPGGMDFWGQGTQVTVSS	high polyreactivity
QVQLVESGGGLVQAGGSLRLSCAASGSPFYAYAMGWYRQAPGKERQLVAAITYRDGRTNYADSVKGRFTISRDNAKNTVYLQMNSMKPEDTEVYYCARITGFTVRRYDYWGQGTQVTVSS	high polyreactivity
QVQLVESGGGLVQAGGSLRLSCAASGSSFGVNAMGWYRQAPGKERELVADISVRTDSTYYADSVKGRFTISRDNAKNTVYLQMNSLKPEDTAVYYCAAEVPYYYPGFYSYYDDSDYWGQGTQVTVSS	low polyreactivity
